Assay results as given in article doi:10.1101/2025.05.27.656304, “Structure of the conjugation surface exclusion protein TraT” (bioRxiv, 2025).

Target: the molecule itself
Experiment: cryo-EM structure; purified TraT (12 mg/ml) in 100 mM Tris, 150 mM NaCl, 0.02% DDM, pH 8; global resolution 2.01 Å

B1: F plasmid TraT complex (Twin-Strep tagged recombinant TraT) (complex, Escherichia coli (F plasmid), UniProt P13979 22-244, looked up)
chain: CGAMSTAIKKRNLEVKTQMSETIWLEPASERTVFLQIKNTSDKDMSGLQGKIADAVKAKGYQVVTSPDKAYYWIQANVLKADKMDLRESQGWLNRGYEGAAVGAALGAGITGYNSNSAGATLGVGLAAGLVGMAADAMVEDVNYTMITDVQIAERTKATVTTDNVAALRQGTSGAKIQTSTETGNQHKYQTRVVSNANKVNLKFEEAKPVLEDQLAKSIANIL
modifications: lipid anchor on the N-terminal cysteine (density not resolved)
notes: TraT surface exclusion outer membrane lipoprotein of the E. coli F plasmid; the traT gene was cloned into a pET22b-derived vector; the protein in the structure begins at the lipidated N-terminal cysteine; Homodecamer by cryo-EM; also called TraTF; TraT-TS; copies: 10
stoichiometry N: 10
